Reference: publication PMC5454113

Key:
activated factor X (FXa) [1] = biological target: activated factor X (FXa) (UniProt P00742); experiment: enzyme inhibition kinetics (chromogenic substrate); as a1, with 100 nM protein S, no FV
activated factor X (FXa) [2] = biological target: activated factor X (FXa) (UniProt P00742); experiment: enzyme inhibition kinetics (chromogenic substrate); as a1, with 30 nM recombinant FV, no protein S
activated factor X (FXa) [3] = biological target: activated factor X (FXa) (UniProt P00742); experiment: enzyme inhibition kinetics (chromogenic substrate); as a1, with 30 nM recombinant FV and 100 nM protein S
activated factor X (FXa) [4] = biological target: activated factor X (FXa) (UniProt P00742); experiment: enzyme inhibition kinetics (chromogenic substrate); FXa 0.3 nM, TFPI 0–16 nM, S-2765 200 uM, 25 uM phospholipids (DOPC/DOPS/DOPE 60:20:20), 5 mM CaCl2, 25 °C, 60 min; no protein S, no FV; Ki = encounter complex, Ki* = overall dissociation constant

UniProt P00742, sequence (P00742 41-179, chain 1 of 2): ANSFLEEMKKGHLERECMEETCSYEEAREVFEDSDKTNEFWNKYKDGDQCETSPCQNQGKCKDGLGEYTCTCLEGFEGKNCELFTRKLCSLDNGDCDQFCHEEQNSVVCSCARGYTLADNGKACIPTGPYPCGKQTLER
UniProt P00742, sequence (P00742 235-488, chain 2 of 2): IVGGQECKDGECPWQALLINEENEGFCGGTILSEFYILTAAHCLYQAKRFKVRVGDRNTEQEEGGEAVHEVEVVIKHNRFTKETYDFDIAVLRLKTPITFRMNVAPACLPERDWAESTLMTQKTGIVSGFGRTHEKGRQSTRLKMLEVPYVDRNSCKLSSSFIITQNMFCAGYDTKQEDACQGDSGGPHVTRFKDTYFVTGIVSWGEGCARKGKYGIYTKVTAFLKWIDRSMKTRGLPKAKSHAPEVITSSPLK

“TFPI ΔCT (aa 1–249) (domain or fragment)” showed a Ki (activated factor X (FXa) [1]) of 0.047 nM, a Ki of the encounter complex (first step) (activated factor X (FXa) [1]) of 4.57 nM and a Ki (activated factor X (FXa) [2]) of 0.31 nM. It also gave a Ki of the encounter complex (first step) (activated factor X (FXa) [2]) of 7.41 nM, a Ki (activated factor X (FXa) [3]) of 0.028 nM and a Ki of the encounter complex (first step) (activated factor X (FXa) [3]) of 1.61 nM. The Ki (activated factor X (FXa) [4]) was 0.05 nM and the Ki of the encounter complex (first step) (activated factor X (FXa) [4]) was 5.69 nM.
